According to the supplement of paper PMC7125110:
± gives the standard error. Fewer inactive variants are shown than the library holds.

B1: glmS ribozyme (parent)
chain: AUAAAAGCGCCAGAACUACAGAAAUGUAGUUGACGAGGAGGAGGUUUAUCGAAUUUUCGGCGGAUGCCUCCAAA

Experiments:
Conditions in all cases: with glucosamine-6-phosphate
glucosamine-6-phosphate [1] = variants of: B1; experiment: self-cleavage kobs at 40 uM GlcN6P; higher = faster cleavage; RNA array
Outline: (§1)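 Glucosamine-6-phosphate, from 40 μM to 10 mM in HEPES/KCl/Mg(OAc)2 buffer, was flowed over sequenced MiSeq chips carrying barcoded ribozyme variants transcribed in situ by E. coli RNA polymerase. A hybridised Cy3 probe tracked the variants at 37 °C as tiles were imaged over ~14 h. kobs, kcat and KM were obtained by fitting normalised per-tile medians to exponential decays and then applying weighted Michaelis–Menten fits across concentrations.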

glucosamine-6-phosphate [2] = variants of: B1; experiment: self-cleavage kobs at 160 uM GlcN6P; higher = faster cleavage; RNA array
Outline: as §1

glucosamine-6-phosphate [3] = variants of: B1; experiment: self-cleavage kobs at 640 uM GlcN6P; higher = faster cleavage; RNA array
Outline: as §1

glucosamine-6-phosphate [4] = variants of: B1; experiment: self-cleavage kobs at 2500 uM GlcN6P; higher = faster cleavage; RNA array
Outline: as §1

glucosamine-6-phosphate [5] = variants of: B1; experiment: self-cleavage kobs at 10000 uM GlcN6P; higher = faster cleavage; RNA array
Outline: as §1

Variant: G44C C68A
- self-cleavage kobs at 40 uM GlcN6P (glucosamine-6-phosphate [1]): < 1e-05 s⁻¹
- self-cleavage kobs at 160 uM GlcN6P (glucosamine-6-phosphate [2]): < 1e-05 s⁻¹
- self-cleavage kobs at 640 uM GlcN6P (glucosamine-6-phosphate [3]): < 1e-05 s⁻¹
- self-cleavage kobs at 2500 uM GlcN6P (glucosamine-6-phosphate [4]): < 1e-05 s⁻¹
- self-cleavage kobs at 10000 uM GlcN6P (glucosamine-6-phosphate [5]): < 1e-05 s⁻¹

Variant: U56G C71A
- self-cleavage kobs at 40 uM GlcN6P (glucosamine-6-phosphate [1]): 8.72e-05 ± 1.6e-05 s⁻¹
- self-cleavage kobs at 160 uM GlcN6P (glucosamine-6-phosphate [2]): 0.000152 ± 4.1e-05 s⁻¹
- self-cleavage kobs at 640 uM GlcN6P (glucosamine-6-phosphate [3]): 0.000589 ± 0.00013 s⁻¹
- self-cleavage kobs at 2500 uM GlcN6P (glucosamine-6-phosphate [4]): 0.000518 ± 0.00011 s⁻¹
- self-cleavage kobs at 10000 uM GlcN6P (glucosamine-6-phosphate [5]): 0.00215 ± 0.0004 s⁻¹

Variant: G29U C71U
- self-cleavage kobs at 40 uM GlcN6P (glucosamine-6-phosphate [1]): 0.000132 ± 1.2e-05 s⁻¹
- self-cleavage kobs at 160 uM GlcN6P (glucosamine-6-phosphate [2]): 0.000298 ± 2.9e-05 s⁻¹
- self-cleavage kobs at 640 uM GlcN6P (glucosamine-6-phosphate [3]): 0.000578 ± 0.0001 s⁻¹
- self-cleavage kobs at 2500 uM GlcN6P (glucosamine-6-phosphate [4]): 0.00226 ± 0.00052 s⁻¹
- self-cleavage kobs at 10000 uM GlcN6P (glucosamine-6-phosphate [5]): 0.00363 ± 0.00043 s⁻¹

Variant: C11U U31C U47C A52U
- self-cleavage kobs at 40 uM GlcN6P (glucosamine-6-phosphate [1]): < 1e-05 s⁻¹
- self-cleavage kobs at 10000 uM GlcN6P (glucosamine-6-phosphate [5]): < 1e-05 s⁻¹

Variant: C16G C34G C50A A64G
- self-cleavage kobs at 40 uM GlcN6P (glucosamine-6-phosphate [1]): < 1e-05 s⁻¹

Variant: G9A C16U
- self-cleavage kobs at 40 uM GlcN6P (glucosamine-6-phosphate [1]): < 1e-05 s⁻¹
- self-cleavage kobs at 160 uM GlcN6P (glucosamine-6-phosphate [2]): < 1e-05 s⁻¹
- self-cleavage kobs at 640 uM GlcN6P (glucosamine-6-phosphate [3]): < 1e-05 s⁻¹
- self-cleavage kobs at 2500 uM GlcN6P (glucosamine-6-phosphate [4]): < 1e-05 s⁻¹
- self-cleavage kobs at 10000 uM GlcN6P (glucosamine-6-phosphate [5]): 3.09e-05 ± 1.5e-05 s⁻¹

Variant: C58G C68G C71U
- self-cleavage kobs at 160 uM GlcN6P (glucosamine-6-phosphate [2]): 9.65e-05 ± 2.3e-05 s⁻¹

Variant: G9U G29C A33U A64U
- self-cleavage kobs at 40 uM GlcN6P (glucosamine-6-phosphate [1]): < 1e-05 s⁻¹
- self-cleavage kobs at 640 uM GlcN6P (glucosamine-6-phosphate [3]): < 1e-05 s⁻¹
- self-cleavage kobs at 2500 uM GlcN6P (glucosamine-6-phosphate [4]): < 1e-05 s⁻¹
- self-cleavage kobs at 10000 uM GlcN6P (glucosamine-6-phosphate [5]): < 1e-05 s⁻¹

Variant: C10G U65G
- self-cleavage kobs at 40 uM GlcN6P (glucosamine-6-phosphate [1]): < 1e-05 s⁻¹
- self-cleavage kobs at 160 uM GlcN6P (glucosamine-6-phosphate [2]): < 1e-05 s⁻¹
- self-cleavage kobs at 640 uM GlcN6P (glucosamine-6-phosphate [3]): < 1e-05 s⁻¹
- self-cleavage kobs at 2500 uM GlcN6P (glucosamine-6-phosphate [4]): < 1e-05 s⁻¹
- self-cleavage kobs at 10000 uM GlcN6P (glucosamine-6-phosphate [5]): < 1e-05 s⁻¹

Variant: G13C G63A
- self-cleavage kobs at 40 uM GlcN6P (glucosamine-6-phosphate [1]): < 1e-05 s⁻¹
- self-cleavage kobs at 640 uM GlcN6P (glucosamine-6-phosphate [3]): < 1e-05 s⁻¹
- self-cleavage kobs at 2500 uM GlcN6P (glucosamine-6-phosphate [4]): < 1e-05 s⁻¹

Variant: A6G G35U A42G U46G G66U
- self-cleavage kobs at 40 uM GlcN6P (glucosamine-6-phosphate [1]): < 1e-05 s⁻¹

Variant: C11U G35C
- self-cleavage kobs at 40 uM GlcN6P (glucosamine-6-phosphate [1]): < 1e-05 s⁻¹

Variant: A15C A33U
- self-cleavage kobs at 40 uM GlcN6P (glucosamine-6-phosphate [1]): < 1e-05 s⁻¹
- self-cleavage kobs at 160 uM GlcN6P (glucosamine-6-phosphate [2]): < 1e-05 s⁻¹

Variant: A6C G43U
- self-cleavage kobs at 40 uM GlcN6P (glucosamine-6-phosphate [1]): < 1e-05 s⁻¹
- self-cleavage kobs at 160 uM GlcN6P (glucosamine-6-phosphate [2]): < 1e-05 s⁻¹
- self-cleavage kobs at 640 uM GlcN6P (glucosamine-6-phosphate [3]): < 1e-05 s⁻¹
- self-cleavage kobs at 2500 uM GlcN6P (glucosamine-6-phosphate [4]): < 1e-05 s⁻¹
- self-cleavage kobs at 10000 uM GlcN6P (glucosamine-6-phosphate [5]): < 1e-05 s⁻¹

Variant: A6U G40C
- self-cleavage kobs at 40 uM GlcN6P (glucosamine-6-phosphate [1]): < 1e-05 s⁻¹

Variant: U54G G62C U69C
- self-cleavage kobs at 40 uM GlcN6P (glucosamine-6-phosphate [1]): < 1e-05 s⁻¹
- self-cleavage kobs at 10000 uM GlcN6P (glucosamine-6-phosphate [5]): < 1e-05 s⁻¹

Variant: A14C C34A
- self-cleavage kobs at 40 uM GlcN6P (glucosamine-6-phosphate [1]): < 1e-05 s⁻¹
- self-cleavage kobs at 160 uM GlcN6P (glucosamine-6-phosphate [2]): < 1e-05 s⁻¹
- self-cleavage kobs at 640 uM GlcN6P (glucosamine-6-phosphate [3]): < 1e-05 s⁻¹
- self-cleavage kobs at 10000 uM GlcN6P (glucosamine-6-phosphate [5]): < 1e-05 s⁻¹

Variant: G41C G43A U46G C68A C70U
- self-cleavage kobs at 40 uM GlcN6P (glucosamine-6-phosphate [1]): < 1e-05 s⁻¹

Variant: U49A G62A
- self-cleavage kobs at 160 uM GlcN6P (glucosamine-6-phosphate [2]): < 1e-05 s⁻¹
- self-cleavage kobs at 640 uM GlcN6P (glucosamine-6-phosphate [3]): < 1e-05 s⁻¹

Variant: A15C A39U U47A U54G
- self-cleavage kobs at 160 uM GlcN6P (glucosamine-6-phosphate [2]): 4.07e-05 ± 1.7e-05 s⁻¹
- self-cleavage kobs at 640 uM GlcN6P (glucosamine-6-phosphate [3]): 0.000184 ± 4.1e-05 s⁻¹
- self-cleavage kobs at 2500 uM GlcN6P (glucosamine-6-phosphate [4]): 0.000635 ± 8.5e-05 s⁻¹

Variant: G9C A33U A52C
- self-cleavage kobs at 40 uM GlcN6P (glucosamine-6-phosphate [1]): < 1e-05 s⁻¹

Variant: G32A C50A U55G C71G
- self-cleavage kobs at 40 uM GlcN6P (glucosamine-6-phosphate [1]): < 1e-05 s⁻¹

Variant: C34A A39C U49A U55C
- self-cleavage kobs at 160 uM GlcN6P (glucosamine-6-phosphate [2]): < 1e-05 s⁻¹

Variant: C11A C34G
- self-cleavage kobs at 40 uM GlcN6P (glucosamine-6-phosphate [1]): < 1e-05 s⁻¹
- self-cleavage kobs at 160 uM GlcN6P (glucosamine-6-phosphate [2]): < 1e-05 s⁻¹
- self-cleavage kobs at 640 uM GlcN6P (glucosamine-6-phosphate [3]): < 1e-05 s⁻¹
- self-cleavage kobs at 10000 uM GlcN6P (glucosamine-6-phosphate [5]): < 1e-05 s⁻¹
